One experiment deals with RSV F on RSV-A2 virus (Respiratory syncytial virus, RSV-A2, UniProt P03420 26-574). In words: cell-based or functional assay.
The target of experiment [1] is RSV postfusion F (postF), F ΔFP (Respiratory syncytial virus, UniProt P03420 26-513). In words: BLI, IgG on anti-human IgG sensor.
Experiment [2] has as its target RSV prefusion F (preF), DS-Cav1 (Respiratory syncytial virus, UniProt P03420 26-513). In words: BLI, IgG on anti-human IgG sensor, 100 nM antigen.
Experiment [3] addresses RSV prefusion F (preF), DS-Cav1 stabilized trimer, subtype A (Respiratory Syncytial Virus, subtype A, UniProt P03420 26-513). Description: BLI, apparent IgG KD (Table 9A).
Experiment [4] addresses RSV F on RSV subtype A virus (RSV-A2) (Respiratory Syncytial Virus, subtype A, …, UniProt P03420 26-574). In words: cell-based or functional assay.
The target in experiment [5] is RSV postfusion F (postF), F ΔFP trimer, subtype A (Respiratory Syncytial Virus, subtype A, UniProt P03420 26-513). In words: BLI, IgG (Table 9A).

Here are results for 15 molecules from patent US20260258115A1 (MAPP BIOPHARMACEUTICAL, published 2026).

B1: ADI-41809 (antibody, V domains shown)
VH: QVTLKESGGGLVQPGGSLRLSCAASGFTFSNYAMSWVRQAPGKGLEWVSAISHSDSRTFYADSVKGRFTISRDNSKNTLFLQMDSLRAHDTAVYYCANVDPSSVTYYGYYYGMDVWGQGTTVTVSS
VL: QSVLTQPPSASGTPGQRVTISCSGSSSNIGKNFVYWYQQFPGTAPKRLIYRNNQRPSGVPDRFSGSRSGTSASLAISGLRSEDEADYYCATWDDSLSGWVFGGGTKLTVL
Consider B1, for which, in the experiment with RSV F on RSV-A2 virus, the “Neutralization IC50 (RSV subtype A)” value was greater than 25 µg/mL. The binding result in experiment [1] is “no binding (tested: 100 nM antigen)”. The same molecule came in with a Kd in experiment [2] of 2.65 nM.

B2: ADI-36673 (antibody, V domains shown)
VH: QVQLVQSGGGLVKPGGSLRLSCAASGFTFRDFYMSWIRQAPGKGLEWVSNISPSSTYTNYADSVKGRFTISRDNAKNSLYLQMNSLRAEDTAVYYCVKSEGYSSGWYDYWGQGTLVTVSS
VL: QPVLTQPPSVSGAPGQRVTISCTGSSSNIGAGYDVNWYHQLPGAAPKLLIYTNSNRPSGVPDRFSGSKSGTSASLAITGLQAEDEADYYCQSYDSSLSGYVFGTGTKLTVL
notes: also called Ab 830; Antibody Number 830
Take B2: the “Neutralization IC50 (RSV subtype A)” value in the experiment with RSV F on RSV-A2 virus stood at 0.02 µg/mL. Moreover, the binding result in experiment [1] is on record as “no binding (tested: 100 nM antigen)”. The Kd in experiment [2] came to 0.62 nM.

B3: ADI-41591 (antibody, V domains shown)
VH: QVTLKESGGGLVKPGGSLRLSCAASGFTFSDYYMSWIRQAPGKGLEWVSYISSSSSYTNYADSVKGRFTISRDNAKNSLYLQMNSLRAEDTAVYYCAREAVAAAGTDYFDYWGQGTLVTVSS
VL: QSVLTQPPSVSGAPGQRVTISCTGSSSNIGAGYDVHWYQQPPRTAPKLLIYGNSNRPSGVPDRFSGSKSGTSASLAITGLQAEDEADYYCQSYDSSLSGYVFGTGTKLTVL
notes: also called Ab 865; Antibody Number 865
Turning to B3, the “Neutralization IC50 (RSV subtype A)” value with RSV F on RSV-A2 virus was greater than 25 µg/mL. Moreover, the binding result in experiment [1] is reported as “no binding (tested: 100 nM antigen)”. Also, the Kd in experiment [2] is 4.26 nM.

B4: ADI-36676 (antibody, V domains shown)
VH: EVQLLESGGGVVQPGRSLRLSCAASGFSFRNYDMHWVRQAPGKGLEWVAIISYDGSNKYADSVKGRFTISRDTSKNTLYLQMNSLRVEDTAVYYCARADSSGYYKGSEYFQHWGQGTLVTVSS
VL: SYELTQLPSVSVAPGQTARITCGGNNIGTKSVQWYQHKPGQAPVLVVYDDSDRPSDIPERFSGSNSGNTATLTISRVEAGDEADYYCQVWDSSSDHYVFGTGTKLTVL
notes: also called Ab 832; Antibody Number 832
Regarding B4, in experiment [3], the Kd is 0.28 nM. For the same molecule, in experiment [4], the “Neutralization - RSV A2 IC50 (pM)” value came out at 130 pM and the “neut IC50 (ug/ml) subtype A (wright)” value was 0.006 µg/mL. Also, the binding result in experiment [5] is reported as “no binding”.

B5: ADI-36676 (antibody, V domains shown)
VH: EVQLLESGGGVVQPGRSLRLSCAASGFSFRNYDMHWVRQAPGKGLEWVAIISYDGSNKYADSVKGRFTISRDTSKNTLYLQMNSLRVEDTAVYYCARADSSGYYKGSEYFQHWGQGTLVTVSS
VL: SYELTQLPSVSVAPGQTARITCGGNNIGTKSVQWYQHKPGQAPVLVVYDDSDRPSDIPERFSGSNSGNTATLTISRVEAGDEADYYCQVWDSSSDHYVFGTGTKLTVL
notes: as for B4
Turning to B5, the “Neutralization IC50 (RSV subtype A)” value with RSV F on RSV-A2 virus is 0.006 µg/mL. In addition, the binding result in experiment [1] is on record as “no binding (tested: 100 nM antigen)”. In addition, the Kd in experiment [2] is 0.282 nM.

B6: ADI-36678 (antibody, V domains shown)
VH: EVQLVQSGGGLVQPGGSLRVSCAASGLTVSTNYMSWVRQLPGKGLEWVSVIYSGGNTYYADSVKGRFTISRDNSKNIVYLEMNSLRIEDTAVYYCARAHLNNWFVSVTDTKDYYFDYWGQGTLVTVSS
VL: SYELTQPPSVSVLPGQTASITCSGDKLGDKYASWYQQKPGQSPILVVFQDDKRPSGIPERFSGSNSGNTATLTISGTQATDEADYYCQACDRNTGVFGTGTKLTVL
Regarding B6, in the experiment with RSV F on RSV-A2 virus, the “Neutralization IC50 (RSV subtype A)” value worked out at 0.006 µg/mL. Besides, the binding result in experiment [1] is recorded as “no binding (tested: 100 nM antigen)”. In experiment [2], this molecule came in with a Kd of 0.716 nM.

B7: ADI-41590 (antibody, V domains shown)
VH: EVQLVQSGGGLVKPGGSLRLSCTASGFTFSDHYMSWIRQAPGKGLEWISYISSTSSFTNYANSVKGRFTISRDNAKNSLYLQMNSLRAEDTAVYYCARDRSILYSGYSLDYWGQGTLVTVSS
VL: DIQMTQSPSSLSASVGDRVTISCRASQSILNYLNWYQHKPGKAPKLLIYAASSLQSGVPSRFSGSGSGTDFTLTISGLQPEDFATYYCQQSDSTRTFGQGTKVEIK
B7: the “Neutralization IC50 (RSV subtype A)” value in the experiment with RSV F on RSV-A2 virus is greater than 25 µg/mL. Moreover, the binding result in experiment [1] is “no binding (tested: 100 nM antigen)”. Moreover, in experiment [2], the Kd was 3.02 nM.

B8: ADI-41567 (antibody, V domains shown)
VH: QVQLQQWGAGLLKPSETLSLTCEVYGGSFSGYYWTWFRQPPGEGLEWIGEINHSGGTNYNPSLKSRVTMSVDASINQFSLQLSSVTAADTSVYYCARGHYYNTNDFYGLFDYWGQGTLVTVSS
VL: DIRLTQSPSFLSASVGDRVTITCRASQGISTYLAWYQQKPGKAPKLLLYAASTLHSGVPSRFSGSGSGTEFTLTISSLQPEDFATYYCQQLNRYPPSTFGPGTKLEIK
notes: also called Ab 845; Antibody Number 845
Turning to B8, the “Neutralization IC50 (RSV subtype A)” value with RSV F on RSV-A2 virus came out at 0.0505 µg/mL. The binding result in experiment [1] was “no binding (tested: 100 nM antigen)”. For the same molecule, the Kd in experiment [2] came to 0.717 nM.

B9: ADI-41609 (antibody, V domains shown)
VH: QVQLVESGAEVKKPGASVKVSCKASGYSFTSYYMHWVRQAPGQGLEWMGVISTNGGTASYSQNFRGRVTLTRDTSTSTAYMELSSLTSEDTAVYYCVREGYCNGGSCSYFDSWGQGTLVTVSS
VL: QSVLTQPPSVSGAPGQRVSISCTGSSSNIGAGYDVHWYQQLPGTAPKVLIYGNNYRPSGVPDRFSGSKSGTSASLAITGLQTEDEADYYCQSYDSRLSVVFGGGTKLTVL
For B9, the “Neutralization IC50 (RSV subtype A)” value with RSV F on RSV-A2 virus is greater than 25 µg/mL. Moreover, the binding result in experiment [1] was “no binding (tested: 100 nM antigen)”. Further, the Kd in experiment [2] was found to be 29.1 nM.

B10: ADI-41578 (antibody, V domains shown)
VH: EVQLVESGGGVVQPGRSLRLSCAASGFTLSSYVMDWVRQAPGKGLEWVAVISYDGSSKYYADSVKGRFTVSRDNSNNAMYLQMNSLRAEDTAVYYCARDPYYDILTGYSYFDYWGHGTTVTVSS
VL: SYVLTQPPSVSGAPRQTATITCGGNNIGSKSVNWYQQKPGQAPVLVVYDDSARPSGIPERFSGSNSGNTATLTVSSVEAGDEADYFCQVWDTSSAPYPWVFGGGTKLTVL
notes: also called Ab 852; Antibody Number 852
With B10, the “Neutralization IC50 (RSV subtype A)” value in the experiment with RSV F on RSV-A2 virus was found to be 0.0398 µg/mL. In experiment [1], the binding result is given as “no binding (tested: 100 nM antigen)”. In experiment [2], this molecule showed a Kd of 0.249 nM.

B11: ADI-36672 (antibody, V domains shown)
VH: EVQLVESGGGLVKPGGSLRLSCAASGFAFNNYYMNWVRQAPGKGLEWVSSISSASTYTDYADSVKGRFTISRDNAKNSLYLHLNSLRAEDTAVYYCARDYYGSGNYYNPKPLDVWGQGTTVTVSS
VL: QPVLTQPPSVSGAPGQRVTISCTGSSSNIGAGYDVHWYRQFPGTAPELLIYGNTNRPSGVPDRFSGSKSGTSASLAITGLQAEDEADYYCQSYDSSLKGVFGGGTKLTVL
As to B11, the Kd in experiment [3] was 0.7 nM. For the same molecule, in experiment [4], the “Neutralization - RSV A2 IC50 (pM)” value was 207 pM and the “neut IC50 (ug/ml) subtype A (wright)” value was 0.018 µg/mL. The binding result in experiment [5] is “no binding”.

B12: ADI-41601 (antibody, V domains shown)
VH: EVQLLESGGGLVKPGGSLRLSCAGSGFRFSDYYMTWIRQAPGKGLEWVSYISSSSTYTYYTDSVKGRFTVSRDNAKNSLYLQMNTLRAEDTAIYYCAISNRYDSRTFYYDYWGQGTLVTVSS
VL: QSVLTQPPSVSGAPGQRVIISCTGSSSNIGAGYDVHWYQQFPGTAPKLLIYGNNNRPSGVPERFSGSKSGTSASLAITGLQADDEADYYCQSYDSLSEVVFGGGTKVTVL
notes: also called Ab 875; Antibody Number 875
Turning to B12, the “Neutralization IC50 (RSV subtype A)” value with RSV F on RSV-A2 virus is greater than 25 µg/mL. The binding result in experiment [1] was “no binding (tested: 100 nM antigen)”. In experiment [2], this molecule came in with a Kd of 0.503 nM.

B13: ADI-36669 (antibody, V domains shown)
VH: EVQLVQSGAEVKKPGASVRVYCKASGYTFTTYYIHWVRQAPGQGLEWMGMINPSGGTTSYAQKFQGRLTMTGDTSTSTVYMELNYLRSEDTAVYYCTRDFIYFYGSGDGFDYWGQGTLVTVSS
VL: EIVMTQSPSAMSASVGDRVTITCRASQGISNYLAWFQQKPGKVPKRLIYAASSLQSGVPSRFSGSGSGTEFTLTITSLQPEDFATYYCLQHNSYPFTFGPGTKVEIK
Regarding B13, the Kd in experiment [3] worked out at 1.1 nM. Further, in experiment [4], the “Neutralization - RSV A2 IC50 (pM)” value worked out at 111 pM and the “neut IC50 (ug/ml) subtype A (wright)” value turned out to be 0.025 µg/mL. Besides, the binding result in experiment [5] is recorded as “no binding”.

B14: ADI-41790 (antibody, V domains shown)
VH: QVQLVQSGAEVKKPGSSVKVSCKASGGTFSNYGISWVRQAPGQGLERLGGIIPIYGTANHAQNFQGRVTITADESTSTAYMELSSLRSEDTAVYYCARDGTFVRYYGMDVWGQGTTVTVSS
VL: EIVLTQSPATLFLSPGERATLSCRASQSVSNYLAWFQQKPGQAPRLLIYDTSIRATGIPARFSGSGSGTDFTLTISSLEPEDFAFYYCQQRSNWPPTFGGGTKLEIK
Turning to B14, in the experiment with RSV F on RSV-A2 virus, the “Neutralization IC50 (RSV subtype A)” value is greater than 25 µg/mL. Moreover, in experiment [1], the binding result is listed as “no binding (tested: 100 nM antigen)”. In experiment [2], this molecule returned a Kd of 3.15 nM.

B15: ADI-36677 (antibody, V domains shown)
VH: QVQLVQSGGGLVQPGGSLRLSCAASGFTFSSYEMNWVRQAPGKGLEWISYISSSGDTKYYADSVKGRFTVSRDNAKYSLYLQMDSLRAEDTAVYYCASLYDSRGYYWVFDYWGQGTLVTVSS
VL: DIVMTQSPSSLSASVGDRVTITCQASQDISTYLNWYQHKPGKAPNLLIYDASNLEPGVPSRFSGSGSGTDFTFTISSLQPEDIATYYCLQHDNLPPTFGQGTKVDIK
B15: the Kd in experiment [3] is 0.54 nM. Moreover, in experiment [4], the “Neutralization - RSV A2 IC50 (pM)” value amounted to 144 pM and the “neut IC50 (ug/ml) subtype A (wright)” value was 0.019 µg/mL. Also, the binding result in experiment [5] is on record as “no binding”.
